Reference: the supplement of paper PMC5998384

How the values were obtained:
[1] = system: HeLa Kyoto; assay: thermal stability score vs G1/S (z-score of summed log2 fold changes over temperatures); higher = more thermally stable than in G1/S
[2] = system: HeLa Kyoto; assay: solubility change mitosis vs G1/S (difference of NP-40 vs SDS log2 ratios) (log2 ratio difference); higher = more soluble in mitosis
[3] = system: HeLa Kyoto; assay: melting temperature (median over replicates), in situ; higher = more thermally stable
[4] = system: HeLa Kyoto; assay: solubility in G1/S (NP-40 vs SDS abundance) (log2 ratio); higher = more soluble; conditions: cell cycle stage: G1/S
[5] = cell cycle stage: early G1 (4.5 h after nocodazole release)
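For melting temperature (median over replicates), in situ in this document: HeLa Kyoto cells synchronized by double thymidine or nocodazole block, proteins quantified by TMT10plex mass spectrometry, three independent biological replicates.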
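For solubility change mitosis vs G1/S (difference of NP-40 vs SDS log2 ratios) in this document: synchronized HeLa Kyoto cells (double thymidine block for G1/S, nocodazole release for mitosis), protein amounts in NP-40 versus SDS lysates quantified by mass spectrometry, three biological replicates.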
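For solubility in G1/S (NP-40 vs SDS abundance) in this document: HeLa Kyoto cells arrested at G1/S by double thymidine block, proteins quantified by TMT10plex mass spectrometry in mild NP-40 versus SDS extracts, three biological replicates.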
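For thermal stability score vs G1/S (z-score of summed log2 fold changes over temperatures) in this document: synchronized HeLa Kyoto cells, proteins quantified by TMT10plex mass spectrometry, three biological replicates, mitosis taken 0.5 h after nocodazole release, G1/S directly after double thymidine block.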

Row | Sequence | thermal stability score [1, 5] | thermal stability score ([1]; cell cycle stage: mitosis) | solubility change mitosis (log2) [2] | melting temperature ([3]; cell cycle stage: G1/S) | melting temperature ([3]; cell cycle stage: mitosis) | solubility in G1/S (log2) [4]
1 | MEGLAGYVYKAASEGKVLTLAALLLNRSESDIRYLLGYVSQQGGQRSTPLIIAARNGHAKVVRLLLEHYRVQTQQTGTVRFDGYVIDGATALWCAAGAGHFEVVKLLVSHGANVNHTTVTNSTPLRAACFDGRLDIVKYLVENNANISIANKYDNTCLMIAAYKGHTDVVRYLLEQRADPNAKAHCGATALHFAAEAGHIDIVKELIKWRAAIVVNGHGMTPLKVAAESCKADVVELLLSHADCDRRSRIEALELLGASFANDRENYDIIKTYHYLYLAMLERFQDGDNILEKEVLPPIHAYGNRTECRNPQELESIRQDRDALHMEGLIVRERILGADNIDVSHPIIYRGAVYADNMEFEQCIKLWLHALHLRQKGNRNTHKDLLRFAQVFSQMIHLNETVKAPDIECVLRCSVLEIEQSMNRVKNISDADVHNAMDNYECNLYTFLYLVCISTKTQCSEEDQCKINKQIYNLIHLDPRTREGFTLLHLAVNSNTPVDDFHTNDVCSFPNALVTKLLLDCGAEVNAVDNEGNSALHIIVQYNRPISDFLTLHSIIISLVEAGAHTDMTNKQNKTPLDKSTTGVSEILLKTQMKMSLKCLAARAVRANDINYQDQIPRTLEEFVGFH [FEM1B] | 0.363 | -1.04 | -0.0104 | 53.5 °C | 52.2 °C | -0.0515
2 | MTTPALLPLSGRRIPPLNLGPPSFPHHRATLRLSEKFILLLILSAFITLCFGAFFFLPDSSKHKRFDLGLEDVLIPHVDAGKGAKNPGVFLIHGPDEHRHREEEERLRNKIRADHEKALEEAKEKLRKSREEIRAEIQTEKNKVVQEMKIKENKPLPPVPIPNLVGIRGGDPEDNDIREKREKIKEMMKHAWDNYRTYGWGHNELRPIARKGHSPNIFGSSQMGATIVDALDTLYIMGLHDEFLDGQRWIEDNLDFSVNSEVSVFEVNIRFIGGLLAAYYLSGEEIFKIKAVQLAEKLLPAFNTPTGIPWAMVNLKSGVGRNWGWASAGSSILAEFGTLHMEFIHLSYLTGDLTYYKKVMHIRKLLQKMDRPNGLYPNYLNPRTGRWGQYHTSVGGLGDSFYEYLLKAWLMSDKTDHEARKMYDDAIEAIEKHLIKKSRGGLTFIGEWKNGHLEKKMGHLACFAGGMFALGADGSRADKAGHYLELGAEIARTCHESYDRTALKLGPESFKFDGAVEAVAVRQAEKYYILRPEVIETYWYLWRFTHDPRYRQWGWEAALAIEKYCRVNGGFSGVKDVYSSTPTHDDVQQSFFLAETLKYLYLLFSGDDLLPLDHWVFNTEAHPLPVLHLANTTLSGNPAVR [MAN1A2] | -0.726 | -1.7 | -0.0976 | 54.1 °C | 54.3 °C | -0.0642
3 | MERASERRTASALFAGFRALGLFSNDIPHVVRFSALKRRFYVTTCVGKSFHTYDVQKLSLVAVSNSVPQDICCMAADGRLVFAAYGNVFSAFARNKEIVHTFKGHKAEIHFLQPFGDHIISVDTDGILIIWHIYSEEEYLQLTFDKSVFKISAILHPSTYLNKILLGSEQGSLQLWNVKSNKLLYTFPGWKVGVTALQQAPAVDVVAIGLMSGQVIIHNIKFNETLMKFRQDWGPITSISFRTDGHPVMAAGSPCGHIGLWDLEDKKLINQMRNAHSTAIAGLTFLHREPLLVTNGADNALRIWIFDGPTGEGRLLRFRMGHSAPLTNIRYYGQNGQQILSASQDGTLQSFSTVHEKFNKSLGHGLINKKRVKRKGLQNTMSVRLPPITKFAAEEARESDWDGIIACHQGKLSCSTWNYQKSTIGAYFLKPKELKKDDITATAVDITSCGNFAVIGLSSGTVDVYNMQSGIHRGSFGKDQAHKGSVRGVAVDGLNQLTVTTGSEGLLKFWNFKNKILIHSVSLSSSPNIMLLHRDSGILGLALDDFSISVLDIETRKIVREFSGHQGQINDMAFSPDGRWLISAAMDCSIRTWDLPSGCLIDCFLLDSAPLNVSMSPTGDFLATSHVDHLGIYLWSNISLYSVVSLRPLPADYVPSIVMLPGTCQTQDVEVSEETVEPSDELIEYDSPEQLNEQLVTLSLLPESRWKNLLNLDVIKKKNKPKEPPKVPKSAPFFIPTIPGLVPRYAAPEQNNDPQQSKVVNLGVLAQKSDFCLKLEEGLVNNKYDTALNLLKESGPSGIETELRSLSPDCGGSIEVMQSFLKMIGMMLDRKRDFELAQAYLALFLKLHLKMLPSEPVLLEEITNLSSQVEENWTHLQSLFNQSMCILNYLKSALL [WDR36] | 0.383 | 0.754 | 0.613 | 50.5 °C | 50.8 °C | -1.46
4 | MENTENSVDSKSIKNLEPKIIHGSESMDSGISLDNSYKMDYPEMGLCIIINNKNFHKSTGMTSRSGTDVDAANLRETFRNLKYEVRNKNDLTREEIVELMRDVSKEDHSKRSSFVCVLLSHGEEGIIFGTNGPVDLKKITNFFRGDRCRSLTGKPKLFIIQACRGTELDCGIETDSGVDDDMACHKIPVEADFLYAYSTAPGYYSWRNSKDGSWFIQSLCAMLKQYADKLEFMHILTRVNRKVATEFESFSFDATFHAKKQIPCIVSMLTKELYFYH [CASP3] | 0.22 | -0.0196 | 0.0123 | 55.7 °C | 56.3 °C | 0.135
5 | MTAELQQDDAAGAADGHGSSCQMLLNQLREITGIQDPSFLHEALKASNGDITQAVSLLTDERVKEPSQDTVATEPSEVEGSAANKEVLAKVIDLTHDNKDDLQAAIALSLLESPKIQADGRDLNRMHEATSAETKRSKRKRCEVWGENPNPNDWRRVDGWPVGLKNVGNTCWFSAVIQSLFQLPEFRRLVLSYSLPQNVLENCRSHTEKRNIMFMQELQYLFALMMGSNRKFVDPSAALDLLKGAFRSSEEQQQDVSEFTHKLLDWLEDAFQLAVNVNSPRNKSENPMVQLFYGTFLTEGVREGKPFCNNETFGQYPLQVNGYRNLDECLEGAMVEGDVELLPSDHSVKYGQERWFTKLPPVLTFELSRFEFNQSLGQPEKIHNKLEFPQIIYMDRYMYRSKELIRNKRECIRKLKEEIKILQQKLERYVKYGSGPARFPLPDMLKYVIEFASTKPASESCPPESDTHMTLPLSSVHCSVSDQTSKESTSTESSSQDVESTFSSPEDSLPKSKPLTSSRSSMEMPSQPAPRTVTDEEINFVKTCLQRWRSEIEQDIQDLKTCIASTTQTIEQMYCDPLLRQVPYRLHAVLVHEGQANAGHYWAYIYNQPRQSWLKYNDISVTESSWEEVERDSYGGLRNVSAYCLMYINDKLPYFNAEAAPTESDQMSEVEALSVELKHYIQEDNWRFEQEVEEWEEEQSCKIPQMESSTNSSSQDYSTSQEPSVASSHGVRCLSSEHAVIVKEQTAQAIANTARAYEKSGVEAALSEVMLSPAMQGVILAIAKARQTFDRDGSEAGLIKAFHEEYSRLYQLAKETPTSHSDPRLQHVLVYFFQNEAPKRVVERTLLEQFADKNLSYDERSISIMKVAQAKLKEIGPDDMNMEEYKKWHEDYSLFRKVSVYLLTGLELYQKGKYQEALSYLVYAYQSNAALLMKGPRRGVKESVIALYRRKCLLELNAKAASLFETNDDHSVTEGINVMNELIIPCIHLIINNDISKDDLDAIEVMRNHWCSYLGQDIAENLQLCLGEFLPRLLDPSAEIIVLKEPPTIRPNSPYDLCSRFAAVMESIQGVSTVTVK [USP28] | 0.432 | 0.537 | -0.0214 | 48 °C | 49.4 °C | 0.0518
6 | MAGTRWVLGALLRGCGCNCSSCRRTGAACLPFYSAAGSIPSGVSGRRRLLLLLGAAAAAASQTRGLQTGPVPPGRLAGPPAVATSAAAAAAASYSALRASLLPQSLAAAAAVPTRSYSQESKTTYLEDLPPPPEYELAPSKLEEEVDDVFLIRAQGLPWSCTMEDVLNFFSDCRIRNGENGIHFLLNRDGKRRGDALIEMESEQDVQKALEKHRMYMGQRYVEVYEINNEDVDALMKSLQVKSSPVVNDGVVRLRGLPYSCNEKDIVDFFAGLNIVDITFVMDYRGRRKTGEAYVQFEEPEMANQALLKHREEIGNRYIEIFPSRRNEVRTHVGSYKGKKIASFPTAKYITEPEMVFEEHEVNEDIQPMTAFESEKEIELPKEVPEKLPEAADFGTTSSLHFVHMRGLPFQANAQDIINFFAPLKPVRITMEYSSSGKATGEADVHFETHEDAVAAMLKDRSHVHHRYIELFLNSCPKGK [GRSF1] | 0.523 | 3.06 | -0.0298 | 47.9 °C | 49.1 °C | 0.345
7 | MFLTRSEYDRGVNTFSPEGRLFQVEYAIEAIKLGSTAIGIQTSEGVCLAVEKRITSPLMEPSSIEKIVEIDAHIGCAMSGLIADAKTLIDKARVETQNHWFTYNETMTVESVTQAVSNLALQFGEEDADPGAMSRPFGVALLFGGVDEKGPQLFHMDPSGTFVQCDARAIGSASEGAQSSLQEVYHKSMTLKEAIKSSLIILKQVMEEKLNATNIELATVQPGQNFHMFTKEELEEVIKDI [PSMA5] | 1.94 | 2.76 | -0.0172 | 55.4 °C | 53.9 °C | 0.313
8 | MPLTGVEPARMNRKKGDKGFESPRPYKLTHQVVCINNINFQRKSVVGFVELTIFPTVANLNRIKLNSKQCRIYRVRINDLEAAFIYNDPTLEVCHSESKQRNLNYFSNAYAAAVSAVDPDAGNGELCIKVPSELWKHVDELKVLKIHINFSLDQPKGGLHFVVPSVEGSMAERGAHVFSCGYQNSTRFWFPCVDSYSELCTWKLEFTVDAAMVAVSNGDLVETVYTHDMRKKTFHYMLTIPTAASNISLAIGPFEILVDPYMHEVTHFCLPQLLPLLKHTTSYLHEVFEFYEEILTCRYPYSCFKTVFIDEAYVEVAAYASMSIFSTNLLHSAMIIDETPLTRRCLAQSLAQQFFGCFISRMSWSDEWVLKGISGYIYGLWMKKTFGVNEYRHWIKEELDKIVAYELKTGGVLLHPIFGGGKEKDNPASHLHFSIKHPHTLSWEYYSMFQCKAHLVMRLIENRISMEFMLQVFNKLLSLASTASSQKFQSHMWSQMLVSTSGFLKSISNVSGKDIQPLIKQWVDQSGVVKFYGSFAFNRKRNVLELEIKQDYTSPGTQKYVGPLKVTVQELDGSFNHTLQIEENSLKHDIPCHSKSRRNKKKKIPLMNGEEVDMDLSAMDADSPLLWIRIDPDMSVLRKVEFEQADFMWQYQLRYERDVVAQQESILALEKFPTPASRLALTDILEQEQCFYRVRMSACFCLAKIANSMVSTWTGPPAMKSLFTRMFCCKSCPNIVKTNNFMSFQSYFLQKTMPVAMALLRDVHNLCPKEVLTFILDLIKYNDNRKNKFSDNYYRAEMIDALANSVTPAVSVNNEVRTLDNLNPDVRLILEEITRFLNMEKLLPSYRHTITVSCLRAIRVLQKNGHVPSDPALFKSYAEYGHFVDIRIAALEAVVDYTKVDRSYEELQWLLNMIQNDPVPYVRHKILNMLTKNPPFTKNMESPLCNEALVDQLWKLMNSGTSHDWRLRCGAVDLYFTLFGLSRPSCLPLPELGLVLNLKEKKAVLNPTIIPESVAGNQEAANNPSSHPQLVGFQNPFSSSQDEEEIDMDTVHDSQAFISHHLNMLERPSTPGLSKYRPASSRSALIPQHSAGCDSTPTTKPQWSLELARKGTGKEQAPLEMSMHPAASAPLSVFTKESTASKHSDHHHHHHHEHKKKKKKHKHKHKHKHKHDSKEKDKEPFTFSSPASGRSIRSPSLSD [TAF2] | 0.286 | 0.175 | 0.123 | 49.6 °C | 50.2 °C | -0.657
9 | MSSLHKSRIADFQDVLKEPSIALEKLRELSFSGIPCEGGLRCLCWKILLNYLPLERASWTSILAKQRELYAQFLREMIIQPGIAKANMGVSREDVTFEDHPLNPNPDSRWNTYFKDNEVLLQIDKDVRRLCPDISFFQRATDYPCLLILDPQNEFETLRKRVEQTTLKSQTVARNRSGVTNMSSPHKNSVPSSLNEYEVLPNGCEAHWEVVERILFIYAKLNPGIAYVQGMNEIVGPLYYTFATDPNSEWKEHAEADTFFCFTNLMAEIRDNFIKSLDDSQCGITYKMEKVYSTLKDKDVELYLKLQEQNIKPQFFAFRWLTLLLSQEFLLPDVIRIWDSLFADDNRFDFLLLVCCAMLMLIREQLLEGDFTVNMRLLQDYPITDVCQILQKAKELQDSK [TBC1D13] | -0.565 | 0.385 | -0.145 | 53.2 °C | 54.1 °C | 0.0698
